Consider 139 substances from the supplement of paper PMC12042874.

± gives the uncertainty stated by the source.

The series is described as follows: amyloid nucleation score (Sup35N fusion, yeast selection) (log enrichment); library NNK2; higher = more nucleation; inactive = no reads after selection. Summed up: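 On medium lacking adenine and uracil, psi-negative yeast expressing peptides of 20 random codons fused to Sup35N were grown 7 days at 30°C after a 24-hour induction with 100 μM copper sulfate. Illumina sequencing of input and output plasmid inserts gave the reads, and sequences under 100 input reads were excluded. The nucleation score is the DiMSum log enrichment of output over input reads, centred on the mode score of non-aggregating sequences.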
Substance SVLSLTKMFGFVADGSRIIK came in with an amyloid nucleation score of -0.574 ± 0.5.

DSSRAVLGVIRYSSEGSL came in with an amyloid nucleation score of -0.34 ± 0.41.

The substance ICETGMGSKVGHEPVTAQ displayed an amyloid nucleation score of 0.598 ± 0.57.

NQLKGYTIYWVL had an amyloid nucleation score of 4.45 ± 0.063.

For the substance VSYVYVKGFGVWFLCTCSPR, the amyloid nucleation score came out at 5.74 ± 0.072.

Turning to SRVEVNALVLISYYPVLDTA, the amyloid nucleation score is 5.736 ± 0.039.

WLPKVWLRVRWFNEEKRDGG came in with an amyloid nucleation score of -0.123 ± 0.54.

VTPDLDCLRDNDMVCGGPDQ came in with an amyloid nucleation score of 0.171 ± 0.23.

On to NKFKG, for which the amyloid nucleation score was found to be 0.19 ± 1.1.

Substance SRTYATRLQLM showed an amyloid nucleation score of 0.007 ± 0.76.

RSFEVKLFARSLKHIPDLTP: the amyloid nucleation score was found to be 1.02 ± 0.35.

On to MIRTHLRRIYNS, for which the amyloid nucleation score is -1.26 ± 0.37.

Turning to LYVFPCHILDDRCFLCGGWF, the amyloid nucleation score is -0.353 ± 0.38.

In the case of GRKLMWSRF, the amyloid nucleation score came out at 0.004 ± 0.45.

GMLEGCRHHGIGWKGYACGQ: the amyloid nucleation score was determined as 2.94 ± 0.087.

In the case of VYFMCLWGFI, the amyloid nucleation score was -0.453 ± 1.1.

Substance NNLATPRQRVWLQVTLPARP showed an amyloid nucleation score of 0.692 ± 0.21.

Substance HGTCISSGNKWARWTLS registered an amyloid nucleation score of 0.355 ± 0.65.

Take YKGQCSILLGRVRWDFSSSS: the amyloid nucleation score is -1.02 ± 0.78.

The substance FDWFNAYSF displayed an amyloid nucleation score of 0.092 ± 0.61.

The substance SVDHLDSVFDYFHVRYKFIS showed an amyloid nucleation score of -1.09 ± 1.1.

For the substance HSPNCYKMSGRFLCD, the amyloid nucleation score was -1.77 ± 0.54.

On to IPGVLLTYVIISRAPGGIPD, for which the amyloid nucleation score is -0.545 ± 0.64.

Regarding FLIFSYIGLFSVISYRSARV, the amyloid nucleation score entry is “inactive”.

As for RGVLYAKVL, the amyloid nucleation score came to 0.808 ± 0.33.

VRLCKYENSSWLSFRFQVQG: the amyloid nucleation score amounted to 0.56 ± 0.39.

Consider LWFGRSCGFGIGVYYRRPSL, for which the amyloid nucleation score was -0.213 ± 0.48.

Take FGSVSSWELPRP: the amyloid nucleation score came out at 0.197 ± 0.63.

For the substance TDAGNKGNTTCNRRSACLFY, the amyloid nucleation score was found to be 0.669 ± 0.74.

YYDLRAATESDVRHGTADHR: the amyloid nucleation score is 0.195 ± 0.37.

Regarding RLVPISKNRVGMNWSASLSL, the amyloid nucleation score is 0.012 ± 0.15.

Consider TVILV, for which the amyloid nucleation score result is “inactive”.

Substance AINCKTGRKLNWIVFGRFTV gave an amyloid nucleation score of -0.315 ± 0.25.

With DLSSALRAMRSYSHLSTVGI, the amyloid nucleation score result is “inactive”.

The substance LFNGECGICDQEKYLVRQTV had an amyloid nucleation score of 0.065 ± 1.1.

FACFI had an amyloid nucleation score of 0.271 ± 0.25.

Take DSLINFRLKVPTMLCMFCWI: the amyloid nucleation score came out at 0.401 ± 0.62.

For LLFMSSNIFDMCREFDRC, the amyloid nucleation score entry was “inactive”.

In turn, YSRGWVHVI gave an amyloid nucleation score of 0.384 ± 0.56.

NFILLDLLSLAICASRVLWA came in with an amyloid nucleation score of 1.56 ± 0.087.

Take HWWLVIAMNRLGCFGEFMMR: the amyloid nucleation score is -0.547 ± 0.63.

ATNNPVMNFAGLAKECFAYM showed an amyloid nucleation score of -0.106 ± 0.79.

LCIDHYVDEMPSIRVVDFYF: the amyloid nucleation score came out at 0.741 ± 0.6.

In turn, IIRRF came in with an amyloid nucleation score of 0.28 ± 0.33.

In turn, RSGCQMKCITYRGRAGGHLV showed an amyloid nucleation score of 0.882 ± 0.31.

For PCACCYGSLAYAAVHSNWLG, the amyloid nucleation score is 8.495 ± 0.07.

Regarding LWGFMCFFW, the amyloid nucleation score was -1.41 ± 0.29.

Regarding LFSCGKSMQLVMWYGLSFCG, the amyloid nucleation score was found to be 0.306 ± 0.37.

With SRAIECVRIYTFNSHSWFIA, the amyloid nucleation score is -1.38 ± 1.1.

Consider SVVVCWGKFLSGVGAWLFHS, for which the amyloid nucleation score result is “inactive”.

TAFSNRCLIQSQKSYLQFSV: the amyloid nucleation score result is “inactive”.

IKSIT: the amyloid nucleation score was -0.388 ± 1.

Regarding YKHFSGFLDFQVPAFSGYVS, the amyloid nucleation score result is “inactive”.

In the case of YSKDSMDSYMMIMFGSVACH, the amyloid nucleation score stood at 0.681 ± 0.6.

For TYAYYH, the amyloid nucleation score came to 5.61 ± 0.061.

For the substance MGLSAVQVFSRRCSFSGKWC, the amyloid nucleation score result is “inactive”.

With KGRGEMSLLFYSILLVGFCL, the amyloid nucleation score entry is “inactive”.

YLVGCKDSRTSLSSLICIRL came in with an amyloid nucleation score of 8.842 ± 0.03.

Regarding EYLRPSWSH, the amyloid nucleation score is -0.971 ± 0.56.

LKNKSPCSR returned an amyloid nucleation score of 0.039 ± 0.29.

For MCWIVTFTRLCWLMFNSERC, the amyloid nucleation score result was “inactive”.

VQFRAHSCLLA showed an amyloid nucleation score of 0.841 ± 0.74.

The substance PTRIFSCSRSGGWYYL came in with an amyloid nucleation score of -0.831 ± 0.32.

As for IYLCTDSLSYRSFVRGN, the amyloid nucleation score came out at 1.18 ± 0.17.

In turn, MTFENFSSSHSWTDLLFLFI displayed an amyloid nucleation score of 3.43 ± 0.078.

As for CFNTTNEMRSTSSWLRYGSV, the amyloid nucleation score stood at 3.83 ± 0.054.

Take TLYWNKSQRYGLLWFKFVSL: the amyloid nucleation score is -0.277 ± 1.

Take HRYSRLRRVHYSYRSKGLNH: the amyloid nucleation score entry was “inactive”.

As for TGFNRCGSRWWLLVSNVKLV, the amyloid nucleation score was -0.388 ± 0.54.

With IASRLTPHSLYFLINVGRGR, the amyloid nucleation score came to 2.88 ± 0.14.

On to FGKYDGTYRSPVGYGFMWS, for which the amyloid nucleation score stood at 0.397 ± 0.41.

Consider SVVLFEYGWICEIIEGSDII, for which the amyloid nucleation score entry is “inactive”.

Turning to LRNGVPDADASSRYFWAAEW, the amyloid nucleation score came out at 0.712 ± 0.24.

HSNGKMNTTIHVVSELTVMR: the amyloid nucleation score is 4.31 ± 0.058.

With NTLLILHIDICYVYSVILTF, the amyloid nucleation score was -0.942 ± 0.76.

Turning to SWVRVDHLNDMYRFELK, the amyloid nucleation score was 0.286 ± 0.46.

YMRMIYCMFRGNCWVVIVEA returned an amyloid nucleation score of 0.216 ± 0.49.

FVSGDHGTVWYIT: the amyloid nucleation score was -0.036 ± 0.48.

In the case of TRETHLGNAFA, the amyloid nucleation score turned out to be 0.674 ± 0.53.

Turning to LRYRVMT, the amyloid nucleation score was 1.23 ± 0.52.

ISPISLTISLLIGYTSGCLR displayed an amyloid nucleation score of 3.15 ± 0.066.

In turn, TNHYSSVRS gave an amyloid nucleation score of -0.195 ± 0.54.

Turning to VNECSFYIIPQTAQWCLVV, the amyloid nucleation score stood at 0.086 ± 0.5.

WVCLYDVVICRIRLSDRENS returned an amyloid nucleation score of 0.713 ± 0.74.

The substance GTSWTVTID registered an amyloid nucleation score of 0.537 ± 0.18.

Regarding VMFSVDHRLTQ, the amyloid nucleation score is -0.354 ± 0.35.

Turning to RSLDQSIVNRVVVYFSGWCV, the amyloid nucleation score is 3.62 ± 0.073.

Consider NARVTGVF, for which the amyloid nucleation score result was “inactive”.

FRAPFTDAGPWSSSGNFLRL came in with an amyloid nucleation score of -0.151 ± 0.37.

As to GTTVMGGILVLDGQALIGSM, the amyloid nucleation score is 1.06 ± 0.28.

For the substance DMRLWCVWSSIACDTSYSTS, the amyloid nucleation score amounted to 0.26 ± 0.2.

In the case of NQRVLLLLKSVLYMMVAK, the amyloid nucleation score entry is “inactive”.

For YIPNDCTTRDCLTYMMSWMF, the amyloid nucleation score is -0.077 ± 0.63.

GENVVEACLWGQSQASWFIR: the amyloid nucleation score is -0.009 ± 0.55.

With GGDLNHHFAWTTNKMHDERR, the amyloid nucleation score came out at 4.537 ± 0.038.

Substance WTCVGSYWSLHFAFSR had an amyloid nucleation score of 4.25 ± 0.12.

With LTPLICADNLD, the amyloid nucleation score is -0.526 ± 0.35.

NGTKTP had an amyloid nucleation score of 0.568 ± 0.47.

As for PDFRSP, the amyloid nucleation score is -0.451 ± 0.41.

The substance MKVPVRIRWVPLFSDFTYQV registered an amyloid nucleation score of -0.736 ± 0.36.

NVLRRFNCWRYESGFSNFVN: the amyloid nucleation score was -1.38 ± 0.36.

FGDVQKPVRMLFVFSFWLLG came in with an amyloid nucleation score of -0.392 ± 0.79.

In turn, ERMSLMGWDFIKCRISLAMS came in with an amyloid nucleation score of -0.021 ± 0.65.

For the substance IFCYPQCVGPRSLCVGGNME, the amyloid nucleation score was -0.72 ± 0.39.

YGPSCSICPVVVIPSF: the amyloid nucleation score entry was “inactive”.

Consider YLRVKMPVIRVIVR, for which the amyloid nucleation score entry is “inactive”.

RVEEWASFTTVIIMRMLNPG: the amyloid nucleation score was 0.94 ± 0.6.

RCKAAGCIHLVFFVCRDACC showed an amyloid nucleation score of 0.605 ± 0.66.

Regarding NNWYILPFAGFWDFGA, the amyloid nucleation score was found to be 5.341 ± 0.03.

The substance SGTKPLCKQ yielded an amyloid nucleation score of 1.22 ± 0.34.

KSLYIGSAY displayed an amyloid nucleation score of 1 ± 0.42.

YFVFHDQKSTNLGWIFVFCR yielded an amyloid nucleation score of 0.108 ± 0.65.

On to SCSISGMVVWDRMVKLSLSL, for which the amyloid nucleation score was -0.317 ± 0.48.

Substance IMPVMLERTGLSGLMCNGWG registered an amyloid nucleation score of -0.315 ± 0.65.

In the case of SCVGTN, the amyloid nucleation score was -0.062 ± 0.55.

As to VCFLQFYLSIFTTHTVSTYK, the amyloid nucleation score is -0.547 ± 0.76.

DTSAIFSYALLL came in with an amyloid nucleation score of 4.56 ± 0.058.

For the substance NDTSYGAQRRVCSTFQGCVT, the amyloid nucleation score stood at 0.211 ± 0.32.

The substance MLVEMYLFVNLCLYMRMSFR returned an amyloid nucleation score of 0.018 ± 0.5.

Turning to SIDYD, the amyloid nucleation score was -0.627 ± 0.76.

RFILLFTCGKGFFMHTCSRG registered an amyloid nucleation score of 3.86 ± 0.11.

NCFYALYPSQDWRMTKLELS registered an amyloid nucleation score of -0.106 ± 0.23.

In the case of CRVRVTFG, the amyloid nucleation score was -0.481 ± 1.1.

With NIRKMSGFVNSYTAYSQGEL, the amyloid nucleation score result was “inactive”.

For KGGAARSVWISMCFFKAFYR, the amyloid nucleation score is -0.358 ± 1.

As to SYNKMMVDRFKYADLRDVRA, the amyloid nucleation score came to 1.03 ± 0.38.

TAKSVVA: the amyloid nucleation score is -0.703 ± 0.29.

In turn, LGIYIVGTNVSSSWLFLCNR came in with an amyloid nucleation score of 0.476 ± 0.4.

Regarding YLSDNLIAFWIVHNQWMIMA, the amyloid nucleation score worked out at 6.005 ± 0.035.

Substance SWNTVVFSGKDNSILGVLAQ returned an amyloid nucleation score of -0.176 ± 0.45.

The substance SGRYFRIRRPYEDCQGREVA registered an amyloid nucleation score of 1.22 ± 0.38.

Take WGVFWLPH: the amyloid nucleation score is -0.807 ± 0.56.

As to YLFDLVFILEQYFWL, the amyloid nucleation score worked out at 2.85 ± 0.049.

SNIYRCPVMSIRSVSHS returned an amyloid nucleation score of 0.536 ± 0.66.

As for GVGHFFLIQINKMCPHMRMA, the amyloid nucleation score came to 2.98 ± 0.13.

The substance VARHIHLTRSRNNFSSGRKA returned an amyloid nucleation score of 0.958 ± 0.4.

As to TSISLLFWCVYSLASVGFSA, the amyloid nucleation score is -0.586 ± 1.1.

CGATQHSGTQVDLKLGFI showed an amyloid nucleation score of -0.321 ± 1.1.

The substance SKGYCWNVICSRVSFTTYAL showed an amyloid nucleation score of 6.77 ± 0.061.
